According to publication PMC7755396 (eLife, 2020):

How the values were obtained:
Conditions in all cases: both partners purified
[1] = target: T1, Puumala virus (Gn−Gc)4 glycoprotein spike on virus-like particles (Puumala orthohantavirus, strain …, UniProt P27312); assay: cryo-EM structure
T1 construct: copies: 4 + 4

[2] = target: T2, Puumala virus Gc as displayed on virus-like particles (Puumala orthohantavirus); assay: cryo-EM structure
T2 chain: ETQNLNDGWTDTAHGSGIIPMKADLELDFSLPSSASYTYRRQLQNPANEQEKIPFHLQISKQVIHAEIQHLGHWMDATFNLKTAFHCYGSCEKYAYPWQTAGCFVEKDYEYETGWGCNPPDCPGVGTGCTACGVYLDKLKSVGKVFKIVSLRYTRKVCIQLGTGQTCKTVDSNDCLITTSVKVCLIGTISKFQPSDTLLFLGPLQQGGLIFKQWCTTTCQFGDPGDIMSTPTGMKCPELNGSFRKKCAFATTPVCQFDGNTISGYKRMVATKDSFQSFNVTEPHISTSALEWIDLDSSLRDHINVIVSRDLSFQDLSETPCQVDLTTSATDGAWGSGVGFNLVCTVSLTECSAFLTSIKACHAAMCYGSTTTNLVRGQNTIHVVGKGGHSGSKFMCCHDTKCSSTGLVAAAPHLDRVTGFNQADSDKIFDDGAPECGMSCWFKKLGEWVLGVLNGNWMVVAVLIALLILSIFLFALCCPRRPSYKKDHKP

[3] = target: Puumala virus (PUUV) Gc ectodomain, residues 659–1105 (Puumala orthohantavirus, GPC of GenBank …, UniProt Q9WJ31); assay: crystal structure

Measured: binding result

B1: Fab P-4G2 (antigen-binding fragment of mAb P-4G2) (Fab, V domains shown)
VH: QVQMKESGGGLVQPGKSLKLSCAASGFTFSDFWMSWVRQPSGKGLEWVARINTNGDTTHYTDDMKGRFTISRDNAKTTLYLEMSPLKSEDTAMYYCTRDRLGPFDYWGQGTTVTVSS
VL: DIVMTQSPAFPPVSLGDTVTITCQASQSVYKNLAWYQQKPGKSPRLLIFGMSSLADGVPSRFSASGSDKQYSLKIRGLQPEDAAIYYCQQHYIAPYTFGAGTRLEIK
notes: also called Fab 4G2
binds: all assays above
